Measured values published in the Human Domainome abundance scans (Beltran et al. 2025).
± gives the uncertainty stated by the source.

B1: Protein piccolo, residues 1058 to 1114; numbered along this chain, Q9Y6V0 (parent)
chain: TCPLCKTELNIGSKDPPNFNTCTECKNQVCNLCGFNPTPHLTEIQEWLCLNCQTQRA

Variants of: B1
Experiment: abundance fitness (aPCA) (normalised: wild type 0, dead -1); higher = more abundant; growth selection in yeast, the domain comes from the species named
Settings: Homo sapiens

Variant	abundance fitness
TCPECKTELNIGSKDPPNFNTCTECKNQVCNLCGFNPTPHLTEIQEWLCLNCQTQRA [L4E]	-0.288 ± 0.14
TCPLCKTECNIGSKDPPNFNTCTECKNQVCNLCGFNPTPHLTEIQEWLCLNCQTQRA [L9C]	-0.201 ± 0.11
TCPLCKTMLNIGSKDPPNFNTCTECKNQVCNLCGFNPTPHLTEIQEWLCLNCQTQRA [E8M]	-0.011 ± 0.088
TCPLCKTELNIGSKDEPNFNTCTECKNQVCNLCGFNPTPHLTEIQEWLCLNCQTQRA [P16E]	-0.187 ± 0.13
TCPLCKTELNIGSKDSPNFNTCTECKNQVCNLCGFNPTPHLTEIQEWLCLNCQTQRA [P16S]	-0.057 ± 0.1
TCPLCKTELNIGSKDPPNFNDCTECKNQVCNLCGFNPTPHLTEIQEWLCLNCQTQRA [T21D]	-0.078 ± 0.19
TCPLCKTELNIGSKDPPNFNTCTECKNQVCNLCGFNPTPHLTEIQEWLCDNCQTQRA [L50D]	0.208 ± 0.17
TCPLCKTELNIGSKDPPNFNTCTECKNQVCNLCGFNPTPHLTEIQEWLCGNCQTQRA [L50G]	0.084 ± 0.092
TCPLCKTELNIGSKDPPNFNTCTECKNQVCNLCGFNPTPHLTEIQEWLWLNCQTQRA [C49W]	-0.884 ± 0.14
TCPLCKTELNIGSKDPPNFNTCTECKNQVCNLCGFNPTPPLTEIQEWLCLNCQTQRA [H40P]	0.085 ± 0.13
TCPLCKTELNIGSKDPPNFNTCTECKNQVCNLCGFNPTPVLTEIQEWLCLNCQTQRA [H40V]	0.051 ± 0.1
TCLLCKTELNIGSKDPPNFNTCTECKNQVCNLCGFNPTPHLTEIQEWLCLNCQTQRA [P3L]	-0.282 ± 0.092
TCPLCKTELNIGSKDPPNWNTCTECKNQVCNLCGFNPTPHLTEIQEWLCLNCQTQRA [F19W]	-0.083 ± 0.11
TCPLCKTELNIGSKDPPNFNTCTKCKNQVCNLCGFNPTPHLTEIQEWLCLNCQTQRA [E24K]	-0.017 ± 0.12
TCPLCKTELNIGSKDPPNFNTCTVCKNQVCNLCGFNPTPHLTEIQEWLCLNCQTQRA [E24V]	0.001 ± 0.086
TCPLCKTELNIGSKDPPNFNTCTACKNQVCNLCGFNPTPHLTEIQEWLCLNCQTQRA [E24A]	-0.061 ± 0.086
TCPLCKTELNIGSKDPPNFNTCTECKNQVCNLCGQNPTPHLTEIQEWLCLNCQTQRA [F35Q]	0.25 ± 0.15
TCPLCKTELNIGSKDPPNFNTCTECKNQVCNLCGRNPTPHLTEIQEWLCLNCQTQRA [F35R]	0.21 ± 0.087
TCPLCKTELNIGSKDPPNFNTCTECKNQVCNLCGKNPTPHLTEIQEWLCLNCQTQRA [F35K]	0.255 ± 0.15
TCPLCKTELNIGSKDPPNFNTCTECKNQVCNLCGFNPTPHLTEIQEWLCLNCQWQRA [T54W]	-0.441 ± 0.15
TCPLCKTELNIGSKDPPNFNTCTECKNQVCNLCGFNPTPHLTEIQEWLCLNCQFQRA [T54F]	-0.79 ± 0.16
TCPLCKTELNIGSKDPPNFNTCTECKNQVCNLCGFNPTPHLTEIQEWLCLICQTQRA [N51I]	-0.566 ± 0.2
TCPLCDTELNIGSKDPPNFNTCTECKNQVCNLCGFNPTPHLTEIQEWLCLNCQTQRA [K6D]	-0.298 ± 0.16
TCPLCETELNIGSKDPPNFNTCTECKNQVCNLCGFNPTPHLTEIQEWLCLNCQTQRA [K6E]	-0.069 ± 0.093

Variant	abundance fitness
TCPLCKTELNIGSKDPPNFNTCTECKNQVCNLCGFNPTVHLTEIQEWLCLNCQTQRA [P39V]	0.092 ± 0.098
TCPLCKTELNIGSKDPPNFNTCTECKNQVCNLCGFNPTPHLTEIQESLCLNCQTQRA [W47S]	-0.03 ± 0.14
TCPLCKTELNIGSKDPPNFNTCTECKNTVCNLCGFNPTPHLTEIQEWLCLNCQTQRA [Q28T]	-0.015 ± 0.13
TCPLCKTELNIGNKDPPNFNTCTECKNQVCNLCGFNPTPHLTEIQEWLCLNCQTQRA [S13N]	-0.146 ± 0.18
TCPLCKTELNIGFKDPPNFNTCTECKNQVCNLCGFNPTPHLTEIQEWLCLNCQTQRA [S13F]	-0.148 ± 0.1
TCPLCKTELNIGSKDPPNFNTCTECKNQVCNLCGFNATPHLTEIQEWLCLNCQTQRA [P37A]	-0.02 ± 0.13
TCPLCKTELNIGSKDPPDFNTCTECKNQVCNLCGFNPTPHLTEIQEWLCLNCQTQRA [N18D]	0.008 ± 0.2
TCPLCKTELNIGSKDPPMFNTCTECKNQVCNLCGFNPTPHLTEIQEWLCLNCQTQRA [N18M]	-0.842 ± 0.14
TCPLCKTELNIGSKDPPNFNTCTECKNQVCNLCGFNPTPHSTEIQEWLCLNCQTQRA [L41S]	0.033 ± 0.093
TCPLCKTELNIGSKDPPNFNTCTECKNQVCNLCGFNPTPHVTEIQEWLCLNCQTQRA [L41V]	0.044 ± 0.091
TCPLCKTELNIGSKDPPNFNTCTECKNQVCNLCWFNPTPHLTEIQEWLCLNCQTQRA [G34W]	-0.242 ± 0.12
TCPLCKTELNIGSKDPPNFNTCTECKNQVCNLCSFNPTPHLTEIQEWLCLNCQTQRA [G34S]	-0.106 ± 0.088
TMPLCKTELNIGSKDPPNFNTCTECKNQVCNLCGFNPTPHLTEIQEWLCLNCQTQRA [C2M]	-0.983 ± 0.27
TGPLCKTELNIGSKDPPNFNTCTECKNQVCNLCGFNPTPHLTEIQEWLCLNCQTQRA [C2G]	-0.877 ± 0.13
TCPLCKTELNIGSKDPMNFNTCTECKNQVCNLCGFNPTPHLTEIQEWLCLNCQTQRA [P17M]	-0.491 ± 0.23
TCPLCKTELNIGSKDPPNFNTCTECKNQVCNLCGFNPTPHLMEIQEWLCLNCQTQRA [T42M]	-0.253 ± 0.19
TCPLCKTELNIGSKDPPNFNTCTECKNQVCVLCGFNPTPHLTEIQEWLCLNCQTQRA [N31V]	0.045 ± 0.1
TCPLCKTELNIGSKDPPNFNTCTECKNQVCMLCGFNPTPHLTEIQEWLCLNCQTQRA [N31M]	-0.147 ± 0.15
TCPLCKTELNIGSKDPPNFNTCKECKNQVCNLCGFNPTPHLTEIQEWLCLNCQTQRA [T23K]	-0.031 ± 0.28
TCPLCKTELNIGSKDPPNFNTCTECKNQVCNLCGFNPTPHLTEIQEWLCLNCCTQRA [Q53C]	-0.464 ± 0.15
TCPLCKTELNIGSKDPPNFNTCTECKNQVCNLCGFNPTPHLTEIQEWLCLNCTTQRA [Q53T]	-0.067 ± 0.22
TCPLCKNELNIGSKDPPNFNTCTECKNQVCNLCGFNPTPHLTEIQEWLCLNCQTQRA [T7N]	-0.007 ± 0.13
TCPLCKFELNIGSKDPPNFNTCTECKNQVCNLCGFNPTPHLTEIQEWLCLNCQTQRA [T7F]	-0.342 ± 0.1
